PMC3790000, “The Extended Transmembrane Orai1 N-terminal (ETON) Region Combines Binding Interface and Gate for Orai1 Activation by STIM1*^([image sbox.jpg])^♦” (The Journal of Biological Chemistry, 2013)
Blank lines part the entries; values can stand above or below the binder they belong to.

Target: T1, YFP-STIM1 233–485 (human, UniProt Q13586-1 233-485)
T1 construct: the YFP fluorescence is the read-out of the thermophoresis; also called STIM1 233–485 C-terminal fragment; slightly extended OASF fragment; source: HEK293, transfected, in lysate (supernatant after Nonidet P40 lysis)
Experiment: MST; monolith NT.115 (Nanotemper); YFP-STIM1 233–485 (or free YFP) in HEK293 cell lysate kept constant, Orai1 peptide varied, up to 16 dilutions, 5 min incubation, glass capillaries; curve fitted to a one-site binding model
Details: one partner purified

T1 sequence (Q13586 233-485): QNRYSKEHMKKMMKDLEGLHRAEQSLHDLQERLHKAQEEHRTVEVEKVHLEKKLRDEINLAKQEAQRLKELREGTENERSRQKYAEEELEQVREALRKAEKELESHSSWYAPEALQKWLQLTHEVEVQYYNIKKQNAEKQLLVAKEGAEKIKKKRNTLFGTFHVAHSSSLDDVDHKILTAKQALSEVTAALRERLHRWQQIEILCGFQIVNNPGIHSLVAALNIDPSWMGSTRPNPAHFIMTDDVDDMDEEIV

- Kd: 406 ± 68 µM
B1: Orai1 aa70–91 L74E/W76E N-terminal peptide (peptide, UniProt Q96D31-1 70-91, looked up)
peptide: SMQAESERKLYLSRAKLKASSR
notes: also called Orai1 NT(aa70–91 L74E/W76E); source: synthetic peptide, bought: peptide 2.0

- Kd: > 4700 µM
B2: Orai1 N-terminal peptide aa77–91 (peptide, UniProt Q96D31-1 77-91, looked up)
peptide: RKLYLSRAKLKASSR
notes: also called Orai1 NT(aa77–91); Orai1 aa77–91; source: synthetic peptide, bought: peptide 2.0
